Where no end group is shown, it is not given here.
Test: Blue native PAGE of the peptide hydrated in 1×PBS (self-assembly)
Type: physicochemical
Settings: dissolved in 1×PBS, 5 min at room temperature, Blue NativePAGE Bis-Tris gel
Method: The peptide (SEQ ID NO: 15) was synthesized by SPPS and lyophilized for storage. The peptide was dissolved in 1×PBS and then loaded onto a blue native PAGE gel and size fractionated by electrophoresis through a 4-16% acrylamide gradient gel for 90 min at 150 V (constant). The gel was fixed in methanol:acetic acid:water and then rinsed in the same solution to destain. Lane 1 is BSA as a reference protein, and Lane 2 is the self-assembled hexamer. MW standards (which are not shown) are on the right. BSA is 66 kDa and the hexamer has an expected size of 20.7 kDa.
Experiments were performed to confirm that a hexamer forms following hydration of the monomer, elucidate the solubility of epitope coupled hexamers, determine the maximum density of epitope coupling, and confirm that a hexameric structure is maintained following coupling of the epitope. A representative peptide, SEQ ID NO: 15, was synthesized using the protocols previously described. A methionine and aspartic acid residue were placed on the N-terminus, and the methionine residue was protected by acetylation to form Acetyl-MD-(SEQ ID NO: 15). Following SPPS, the peptide was lyophilized for storage. To show self-assembly, the peptide was dissolved in 1×PBS buffer, incubated at room temperature for 5 min, and loaded onto a Blue NativePAGE Novex Bis-Tris Gel using the system purchased from Life Technologies. […]

LRSIGKDLRSIGRDLRSIGKDLRSIGRD (Ac-MDLRSIGKDLRSIGRDLRSIGKDLRSIGRD; also: hexamer) [Acetyl-MD-(SEQ ID NO: 15), Representative self-assembling peptide made by SPPS; forms the hexamer on hydration]
higher order structures or aggregates: no detectable higher order structures or aggregates | oligomeric state after hydration (self-assembly) (expected hexamer size 20.7 kDa): self-assembly of the hexamer
